Measurements taken from patent publication US20210008162A1 (OP T, published 2021).
Where no end group is shown, it is not given here.

Legend:
[1] = biological target: T1, human CD40 on CD4+CD40+ cells (human, UniProt P25942 21-277); assay: KGYY-15 bound to live CD4+CD40+ cells kept in culture for 10 days, percent bound over days post treatment; the text says 'human or mouse' cells
T1 construct: whole, on cells

[2] = biological target: T2, mouse CD40 on cells (CD40+ T cells / Th40 cells and B cells of NOD mice; mouse CD4+CD40+ cells in culture) (mouse, UniProt P27512 20-289); assay: as above
T2 construct: whole, on cells; The target is inferred from CD40+ cells; No purified CD40 was tested; also called CD40 protein
T2 sequence (looked up): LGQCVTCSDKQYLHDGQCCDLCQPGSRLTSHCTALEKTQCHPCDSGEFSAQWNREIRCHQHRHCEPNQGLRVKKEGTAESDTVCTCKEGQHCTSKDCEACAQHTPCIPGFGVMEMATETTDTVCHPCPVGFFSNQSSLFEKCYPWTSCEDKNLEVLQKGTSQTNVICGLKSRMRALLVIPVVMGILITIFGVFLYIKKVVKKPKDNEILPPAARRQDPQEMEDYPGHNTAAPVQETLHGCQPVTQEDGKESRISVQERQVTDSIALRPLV

T1 sequence (P25942 21-277): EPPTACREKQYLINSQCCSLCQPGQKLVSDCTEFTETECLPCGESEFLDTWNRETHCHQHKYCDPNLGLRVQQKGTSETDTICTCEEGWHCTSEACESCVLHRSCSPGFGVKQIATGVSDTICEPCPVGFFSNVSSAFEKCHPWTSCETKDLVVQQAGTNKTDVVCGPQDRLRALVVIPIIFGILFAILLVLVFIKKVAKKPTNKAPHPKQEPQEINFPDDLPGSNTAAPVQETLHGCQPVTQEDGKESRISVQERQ

- binding result [1]: binds
- binding result [2]: binds
Binder: VLQWAKKGYYTMKSN-NH2 (also called 15-mer-Form 1) [KGYY-15 (SEQ ID NO:11)]
